Measured values taken from paper PMC4627807, “Klotho Regulates 14-3-3ζ Monomerization and Binding to the ASK1 Signaling Complex in Response to Oxidative Stress” (PLoS ONE, 2015).

Legend:
[1] = biological target: T1, 14-3-3ζ (human (endogenous in HEK 293), UniProt P63104 1-245); assay: co-IP; endogenous proteins; HEK 293 lysate precipitated with 14-3-3ζ antibody, protein A agarose; Trx by Western blot; cells treated with buffer, 200 pM Klotho or NAC for 40 min; Trx released from the beads only with DTT, 2-ME or THP; settings: partners not purified
T1 construct: 14-3-3ζ, endogenous in HEK 293 cells; Klotho treatment of the cells raises phosphorylation at Ser-58 and the monomer level; the phosphorylated form was not isolated as a molecule of its own; also called 14-3-3zeta; endogenous 14-3-3ζ; source: endogenous, HEK 293 lysate
T1 sequence (looked up): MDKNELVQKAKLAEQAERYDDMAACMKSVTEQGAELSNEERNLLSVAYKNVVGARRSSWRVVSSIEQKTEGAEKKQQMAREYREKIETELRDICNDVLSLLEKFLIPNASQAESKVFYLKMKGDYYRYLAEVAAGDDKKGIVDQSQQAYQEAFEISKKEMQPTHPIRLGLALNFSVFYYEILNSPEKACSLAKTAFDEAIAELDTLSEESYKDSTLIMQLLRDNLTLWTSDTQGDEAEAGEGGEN

[2] = biological target: GST-tagged 14-3-3ζ dimer deficient mutant (Dm) (UniProt P63104); assay: pull-down; lysates of HEK 293 cells transfected with GST-14-3-3ζ Wt or Dm adsorbed onto glutathione sepharose, binding buffer 20 mM Tris-Cl pH 7.5, 2 mM EDTA, 1 mM EGTA, 80 mM NaCl; endogenous Trx by Western blot; cells treated with buffer or secreted Klotho for 40 min

- fold increase of bound Trx, Klotho-treated versus buffer-treated cells [1]: ~2 fold
- fold increase of bound Trx relative to 14-3-3ζwt [2]: 2 fold
B1: thioredoxin (Trx) (natural protein, human (endogenous in HEK 293), UniProt P10599 1-105, looked up)
chain: MVKQIESKTAFQEALDAAGDKLVVVDFSATWCGPCKMIKPFFHSLSEKYSNVIFLEVDVDDCQDVASECEVKCMPTFQFFKKGQKVGEFSGANKEKLEATINELV
notes: thioredoxin (Trx), endogenous in HEK 293 cells; active site cysteines named as Cys32/35; Detected by Western blot or iCE with a Trx antibody; source: endogenous, HEK 293 lysate
